Results taken from the supplement of paper PMC10567573.

B1: TPPP (parent)
chain: LCKDCQVIDGRNVTVTDVDIVFSK

Variants of: B1
Test: protein stability index of a GFP-peptide fusion (GPS, HEK-293T) (PSI 1-6); higher = more stable
Conditions: c terminus: a fixed tail appended
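Further: lentivirally expressed fusions sorted by FACS into six bins by GFP to DsRed ratio, PSI derived from sequencing read proportions per bin multiplied by bin number.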

First: LCKDCQVIDGVNVTVTDVDIVFSK [R11V]
Second: LCKDCQVIDGWNVTVTDVDIVFSK [R11W]
The protein stability index of the first is higher: 2.05 for the first, 1.78 for the second.

First: LCKDCQVIDGCNVTVTDVDIVFSK [R11C]
Second: LCKDCQVIDGGNVTVTDVDIVFSK [R11G]
The protein stability index of the first is lower: 2.35 for the first, 2.56 for the second.

First: LCKDCQVIDGYNVTVTDVDIVFSK [R11Y]
Second: LCKDCQVIDGQNVTVTDVDIVFSK [R11Q]
The protein stability index of the first is lower: 1.55 for the first, 2.35 for the second.

First: LCKDCQVIDGKNVTVTDVDIVFSK [R11K]
Second: LCKDCQVIDGANVTVTDVDIVFSK [R11A]
The protein stability index of the first is higher: 2.71 for the first, 2.54 for the second.

Compared with LCKDCQVIDGSNVTVTDVDIVFSK [R11S], LCKDCQVIDGPNVTVTDVDIVFSK [R11P] is lower in protein stability index: 2.58 for the first, 2.57 for the second.

First: LCKDCQVIDGTNVTVTDVDIVFSK [R11T]
Second: LCKDCQVIDGINVTVTDVDIVFSK [R11I]
The protein stability index of the first is higher: 2.35 for the first, 1.68 for the second.

Going from LCKDCQVIDGHNVTVTDVDIVFSK [R11H] to LCKDCQVIDGENVTVTDVDIVFSK [R11E], the protein stability index rises from 2.15 to 2.9.

Going from LCKDCQVIDGFNVTVTDVDIVFSK [R11F] to LCKDCQVIDGNNVTVTDVDIVFSK [R11N], the protein stability index rises from 1.91 to 2.85.

First: LCKDCQVIDGLNVTVTDVDIVFSK [R11L]
Second: LCKDCQVIDGMNVTVTDVDIVFSK [R11M]
The protein stability index of the first is lower: 1.68 for the first, 2.16 for the second.

Compared with LCKDCQVIDGDNVTVTDVDIVFSK [R11D], LCKDCQVIDGRNVTFTDVDIVFSK [V15F] is lower in protein stability index: 3.54 for the first, 2.54 for the second.

Compared with LCKDCQVIDGRNVTATDVDIVFSK [V15A], LCKDCQVIDGRNVTWTDVDIVFSK [V15W] is lower in protein stability index: 2.6 for the first, 2.22 for the second.

Compared with LCKDCQVIDGRNVTLTDVDIVFSK [V15L], LCKDCQVIDGRNVTSTDVDIVFSK [V15S] is higher in protein stability index: 2.28 for the first, 2.48 for the second.

Compared with LCKDCQVIDGRNVTNTDVDIVFSK [V15N], LCKDCQVIDGRNVTMTDVDIVFSK [V15M] is lower in protein stability index: 2.95 for the first, 1.97 for the second.

First: LCKDCQVIDGRNVTPTDVDIVFSK [V15P]
Second: LCKDCQVIDGRNVTHTDVDIVFSK [V15H]
The protein stability index of the first is higher: 4.11 for the first, 2.92 for the second.

First: LCKDCQVIDGRNVTRTDVDIVFSK [V15R]
Second: LCKDCQVIDGRNVTGTDVDIVFSK [V15G]
The protein stability index of the first is higher: 3.44 for the first, 2.65 for the second.

Going from LCKDCQVIDGRNVTYTDVDIVFSK [V15Y] to LCKDCQVIDGRNVTCTDVDIVFSK [V15C], the protein stability index rises from 2.01 to 2.62.

Compared with LCKDCQVIDGRNVTKTDVDIVFSK [V15K], LCKDCQVIDGRNVTITDVDIVFSK [V15I] is lower in protein stability index: 2.89 for the first, 2.02 for the second.

Going from LCKDCQVIDGRNVTDTDVDIVFSK [V15D] to LCKDCQVIDGRNVTETDVDIVFSK [V15E], the protein stability index rises from 3.04 to 3.64.

Compared with LCKDCQVIDGRNVTQTDVDIVFSK [V15Q], LCKDCQVIDGRNVTTTDVDIVFSK [V15T] is higher in protein stability index: 2.92 for the first, 2.96 for the second.

Going from LCKDCQVIDGRNVTVTDVDAVFSK [I20A] to LCKDCQVIDGRNVTVTDVDHVFSK [I20H], the protein stability index falls from 3.04 to 2.91.

Compared with LCKDCQVIDGRNVTVTDVDDVFSK [I20D], LCKDCQVIDGRNVTVTDVDFVFSK [I20F] is lower in protein stability index: 3.46 for the first, 2.38 for the second.

First: LCKDCQVIDGRNVTVTDVDCVFSK [I20C]
Second: LCKDCQVIDGRNVTVTDVDEVFSK [I20E]
The protein stability index of the first is lower: 2.68 for the first, 3.92 for the second.

Compared with LCKDCQVIDGRNVTVTDVDGVFSK [I20G], LCKDCQVIDGRNVWVTDVDIVFSK [T14W] is lower in protein stability index: 3.35 for the first, 2.52 for the second.

Going from LCKDCQVIDGRNVHVTDVDIVFSK [T14H] to LCKDCQVIDGRNVDVTDVDIVFSK [T14D], the protein stability index rises from 2.61 to 2.68.

Going from LCKDCQVIDGRNVNVTDVDIVFSK [T14N] to LCKDCQVIDGRNVLVTDVDIVFSK [T14L], the protein stability index falls from 2.73 to 1.84.

Compared with LCKDCQVIDGRNVAVTDVDIVFSK [T14A], LCKDCQVIDGRNVFVTDVDIVFSK [T14F] is lower in protein stability index: 2.81 for the first, 1.91 for the second.

First: LCKDCQVIDGRNVPVTDVDIVFSK [T14P]
Second: LCKDCQVIDGRNVSVTDVDIVFSK [T14S]
The protein stability index of the first is lower: 2.75 for the first, 2.83 for the second.

Compared with LCKDCQVIDGRNVEVTDVDIVFSK [T14E], LCKDCQVIDGRNVYVTDVDIVFSK [T14Y] is lower in protein stability index: 3.2 for the first, 2.15 for the second.

First: LCKDCQVIDGRNVGVTDVDIVFSK [T14G]
Second: LCKDCQVIDGRNVKVTDVDIVFSK [T14K]
The protein stability index of the first is higher: 3.05 for the first, 2.48 for the second.

First: LCKDCQVIDGRNVVVTDVDIVFSK [T14V]
Second: LCKDCQVIDGRNVRVTDVDIVFSK [T14R]
The protein stability index of the first is lower: 1.72 for the first, 2.4 for the second.

Going from LCKDCQVIDGRNVMVTDVDIVFSK [T14M] to LCKDCQVIDGRNVIVTDVDIVFSK [T14I], the protein stability index rises from 1.6 to 2.76.

First: LCKDCQVIDGRNVCVTDVDIVFSK [T14C]
Second: LCKDCQVIDGRNVQVTDVDIVFSK [T14Q]
The protein stability index of the first is lower: 2.41 for the first, 2.7 for the second.

First: LCKDCQVIDWRNVTVTDVDIVFSK [G10W]
Second: LCKDCQVIDNRNVTVTDVDIVFSK [G10N]
The protein stability index of the first is lower: 2.33 for the first, 2.39 for the second.

Compared with LCKDCQVIDIRNVTVTDVDIVFSK [G10I], LCKDCQVIDSRNVTVTDVDIVFSK [G10S] is higher in protein stability index: 1.3 for the first, 2.74 for the second.

Compared with LCKDCQVIDKRNVTVTDVDIVFSK [G10K], LCKDCQVIDVRNVTVTDVDIVFSK [G10V] is lower in protein stability index: 2.88 for the first, 2.34 for the second.

Compared with LCKDCQVIDMRNVTVTDVDIVFSK [G10M], LCKDCQVIDFRNVTVTDVDIVFSK [G10F] is higher in protein stability index: 1.54 for the first, 1.77 for the second.

First: LCKDCQVIDRRNVTVTDVDIVFSK [G10R]
Second: LCKDCQVIDTRNVTVTDVDIVFSK [G10T]
The protein stability index of the first is lower: 2.51 for the first, 2.52 for the second.

First: LCKDCQVIDLRNVTVTDVDIVFSK [G10L]
Second: LCKDCQVIDPRNVTVTDVDIVFSK [G10P]
The protein stability index of the first is lower: 1.61 for the first, 2.63 for the second.

First: LCKDCQVIDYRNVTVTDVDIVFSK [G10Y]
Second: LCKDCQVIDQRNVTVTDVDIVFSK [G10Q]
The protein stability index of the first is lower: 1.99 for the first, 2.47 for the second.

Going from LCKDCQVIDHRNVTVTDVDIVFSK [G10H] to LCKDCQVIDGRNVTVTDHDIVFSK [V18H], the protein stability index rises from 2.8 to 2.91.

Going from LCKDCQVIDGRNVTVTDKDIVFSK [V18K] to LCKDCQVIDGRNVTVTDCDIVFSK [V18C], the protein stability index falls from 2.77 to 2.48.

Compared with LCKDCQVIDGRNVTVTDADIVFSK [V18A], LCKDCQVIDGRNVTVTDSDIVFSK [V18S] is higher in protein stability index: 2.9 for the first, 3.12 for the second.

Compared with LCKDCQVIDGRNVTVTDWDIVFSK [V18W], LCKDCQVIDGRNVTVTDGDIVFSK [V18G] is higher in protein stability index: 2.23 for the first, 3.11 for the second.

Going from LCKDCQVIDGRNVTVTDNDIVFSK [V18N] to LCKDCQVIDGRNVTVTDDDIVFSK [V18D], the protein stability index falls from 3.79 to 3.58.

Going from LCKDCQVIDGRNVTVTDQDIVFSK [V18Q] to LCKDCQVIDGRNVTVTDRDIVFSK [V18R], the protein stability index falls from 3.16 to 3.06.

Compared with LCKDCQVIDGRNVTVTDYDIVFSK [V18Y], LCKDCQVIDGRNVTVTDTDIVFSK [V18T] is higher in protein stability index: 2.6 for the first, 3.69 for the second.

Compared with LCKDCQVIDGRNVTVTDMDIVFSK [V18M], LCKDCQVIDGRNVTVTDLDIVFSK [V18L] is higher in protein stability index: 1.92 for the first, 2.4 for the second.
